Measurements: PMC2195629

Target: Glycocalicin, the soluble extracellular portion of human GP Ibα (human) (UniProt P07359)
Assay: cell adhesion assay

Sequence of UniProt P07359 (P07359 17-531): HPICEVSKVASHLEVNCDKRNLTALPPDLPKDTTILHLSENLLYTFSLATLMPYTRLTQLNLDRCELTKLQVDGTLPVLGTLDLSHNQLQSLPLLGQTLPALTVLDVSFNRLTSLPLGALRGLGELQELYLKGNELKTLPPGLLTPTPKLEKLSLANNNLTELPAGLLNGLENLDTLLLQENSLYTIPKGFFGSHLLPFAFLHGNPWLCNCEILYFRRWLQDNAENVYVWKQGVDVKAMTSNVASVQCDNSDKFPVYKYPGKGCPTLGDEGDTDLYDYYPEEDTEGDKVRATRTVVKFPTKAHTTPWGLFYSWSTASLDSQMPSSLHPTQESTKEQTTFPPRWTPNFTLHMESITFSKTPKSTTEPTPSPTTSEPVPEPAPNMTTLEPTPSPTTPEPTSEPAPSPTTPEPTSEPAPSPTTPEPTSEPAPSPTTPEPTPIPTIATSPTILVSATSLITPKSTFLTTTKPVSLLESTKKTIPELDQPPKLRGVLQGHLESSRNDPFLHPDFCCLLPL

fold adhesion over untransfected CHO cells: 5 fold
Substance: phosphatidylinositol glycan–linked form of P-selectin on CHO cells (CHO-P) (from UniProt P16109 42-830) (receptor)
